Test results taken from paper PMC3087855 (Nature structural & molecular biology, 2011).

Target: the molecule itself
Assay: crystal structure

B1: bacteriophage P22 portal protein core (residues 1-602) (domain or fragment, UniProt P26744 1-602, looked up)
chain: MADNENRLESILSRFDADWTASDEARREAKNDLFFSRVSQWDDWLSQYTTLQYRGQFDVVRPVVRKLVSEMRQNPIDVLYRPKDGARPDAADVLMGMYRTDMRHNTAKIAVNIAVREQIEAGVGAWRLVTDYEDQSPTSNNQVIRREPIHSACSHVIWDSNSKLMDKSDARHCTVIHSMSQNGWEDFAEKYDLDADDIPSFQNPNDWVFPWLTQDTIQIAEFYEVVEKKETAFIYQDPVTGEPVSYFKRDIKDVIDDLADSGFIKIAERQIKRRRVYKSIITCTAVLKDKQLIAGEHIPIVPVFGEWGFVEDKEVYEGVVRLTKDGQRLRNMIMSFNADIVARTPKKKPFFWPEQIAGFEHMYDGNDDYPYYLLNRTDENSGDLPTQPLAYYENPEVPQANAYMLEAATSAVKEVATLGVDTEAVNGGQVAFDTVNQLNMRADLETYVFQDNLATAMRRDGEIYQSIVNDIYDVPRNVTITLEDGSEKDVQLMAEVVDLATGEKQVLNDIRGRYECYTDVGPSFQSMKQQNRAEILELLGKTPQGTPEYQLLLLQYFTLLDGKGVEMMRDYANKQLIQMGVKKPETPEEQQWLVEAQQAKQG
modifications: selenomethionine derivatized (methionines replaced by selenomethionine)
stoichiometry N: 12
